In patent US10047131B2, “Peptides and combination of peptides for use in immunotherapy against ovarian cancer and other cancers” (immatics biotechnologies GmbH, priority 2015, dated 2018):

These substances were tested against HLA-A*02:01 (Homo sapiens, UniProt P04439, D140Y/D185E/D98H/E176V/E277Q/G131W/G231S/I119V/I121R/I166T/I218V/L300P/L318F/N151K/N90K/P208A/P217A/Q86G/Q94H/R138H/R169H/T345S) (assay: MHC binding assay (UV-ligand exchange, ELISA of exchange yield)). Conditions: binding to HLA-A*02:01, UV-ligand exchange.
How it was run: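 ELISA of β2m retained on streptavidin-captured, 100-fold diluted complexes (HRP anti-β2m, TMB, 450 nm) gives the yield. Complexes come from UV-triggered exchange of a photocleavable placeholder peptide for the candidate, which must bind to stop complex dissociation.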

| Peptide exchange (MHC class I binding score, peptide exchange yield) | Substance |
| --- | --- |
| “++” (≥20% = ++) | 458 (SLIDKLYNI; listed as Homo sapiens) [compound 458] |
| “++” (≥20% = ++) | 459 (ALITEVVRL; listed as Homo sapiens) [compound 459] |
| “++++” (≥75% = ++++) | 460 (AMLEKNYKL; listed as Homo sapiens) [compound 460] |
| “++” (≥20% = ++) | 461 (VMFRTPLASV; listed as Homo sapiens) [compound 461] |
| “+++” (≥50 = +++) | 462 (KLAKQPETV; listed as Homo sapiens) [compound 462] |
| “+++” (≥50 = +++) | 463 (SLVESHLSDQLTL; listed as Homo sapiens) [compound 463] |
| “+++” (≥50 = +++) | 464 (ALNDCIYSV; listed as Homo sapiens) [compound 464] |
| “+++” (≥50 = +++) | 465 (QLCDLNAEL; listed as Homo sapiens) [compound 465] |
| “++++” (≥75% = ++++) | 466 (VLIANLEKL; listed as Homo sapiens) [compound 466] |
| “+++” (≥50 = +++) | 467 (FLAKDFNFL; listed as Homo sapiens) [compound 467] |
| “+++” (≥50 = +++) | 468 (YLRSVGDGETV; listed as Homo sapiens) [compound 468] |
| “+++” (≥50 = +++) | 469 (YLASDEITTV; listed as Homo sapiens) [compound 469] |
| “+++” (≥50 = +++) | 471 (YLYNNMIAKI; listed as Homo sapiens) [compound 471] |
| “+++” (≥50 = +++) | 472 (KLLEVSDDPQV; listed as Homo sapiens) [compound 472] |
| “+++” (≥50 = +++) | 473 (AMATESILHFA; listed as Homo sapiens) [compound 473] |
| “+++” (≥50 = +++) | 474 (YLDPALELGPRNV; listed as Homo sapiens) [compound 474] |
| “+++” (≥50 = +++) | 475 (LLLNEEALAQI; listed as Homo sapiens) [compound 475] |
| “+++” (≥50 = +++) | 476 (ALMERTGYSMV; listed as Homo sapiens) [compound 476] |
| “+++” (≥50 = +++) | 477 (ALLPASGQIAL; listed as Homo sapiens) [compound 477] |
| “+++” (≥50 = +++) | 478 (YLLHEKLNL; listed as Homo sapiens) [compound 478] |
| “+++” (≥50 = +++) | 479 (SLFGNSGILENV; listed as Homo sapiens) [compound 479] |
| “+++” (≥50 = +++) | 480 (ALLEDSCHYL; listed as Homo sapiens) [compound 480] |
| “+++” (≥50 = +++) | 481 (GLIEDYEALL; listed as Homo sapiens) [compound 481] |

| Peptide exchange (MHC class I binding score, peptide exchange yield) | Substance |
| --- | --- |
| “+++” (≥50 = +++) | 484 (SLIEKVTQL; listed as Homo sapiens) [compound 484] |
| “+++” (≥50 = +++) | 485 (NVPDSFNEV; listed as Homo sapiens) [compound 485] |
| “+++” (≥50 = +++) | 486 (AVMESIQGV; listed as Homo sapiens) [compound 486] |
| “+++” (≥50 = +++) | 487 (LLINSVFHV; listed as Homo sapiens) [compound 487] |
| “+++” (≥50 = +++) | 488 (FLAEDPKVTL; listed as Homo sapiens) [compound 488] |
| “+++” (≥50 = +++) | 489 (KMWEELPEVV; listed as Homo sapiens) [compound 489] |
| “+++” (≥50 = +++) | 490 (FLLQHVQEL; listed as Homo sapiens) [compound 490] |
| “++” (≥20% = ++) | 491 (GLNDRSDAV; listed as Homo sapiens) [compound 491] |
| “+++” (≥50 = +++) | 492 (SLFDGFADGLGV; listed as Homo sapiens) [compound 492] |
| “+++” (≥50 = +++) | 493 (GLLGEKTQDLIGV; listed as Homo sapiens) [compound 493] |
| “++” (≥20% = ++) | 494 (ALQPEPIKV; listed as Homo sapiens) [compound 494] |
| “+++” (≥50 = +++) | 495 (FIFSEKPVFV; listed as Homo sapiens) [compound 495] |
| “+++” (≥50 = +++) | 496 (FLVEKQPPQV; listed as Homo sapiens) [compound 496] |
| “+++” (≥50 = +++) | 497 (GLLEKLTAI; listed as Homo sapiens) [compound 497] |
| “+++” (≥50 = +++) | 498 (KLWTGGLDNTV; listed as Homo sapiens) [compound 498] |
| “++” (≥20% = ++) | 499 (KIFDIDEAEEGV; listed as Homo sapiens) [compound 499] |
| “+++” (≥50 = +++) | 500 (SLMEDQVLQL; listed as Homo sapiens) [compound 500] |
| “+++” (≥50 = +++) | 501 (LLDPNVKSIFV; listed as Homo sapiens) [compound 501] |
| “+++” (≥50 = +++) | 502 (RLLAQVPGL; listed as Homo sapiens) [compound 502] |
| “+++” (≥50 = +++) | 503 (SLNHFTHSV; listed as Homo sapiens) [compound 503] |
| “++” (≥20% = ++) | 504 (GLSDGNPSL; listed as Homo sapiens) [compound 504] |
| “++” (≥20% = ++) | 505 (SLAPGDVVRQV; listed as Homo sapiens) [compound 505] |
| “+++” (≥50 = +++) | 506 (KLLGKVETA; listed as Homo sapiens) [compound 506] |

| Peptide exchange (MHC class I binding score, peptide exchange yield) | Substance |
| --- | --- |
| “+++” (≥50 = +++) | 507 (KLIDDQDISISL; listed as Homo sapiens) [compound 507] |
| “+++” (≥50 = +++) | 508 (ILAQEQLVVGV; listed as Homo sapiens) [compound 508] |
| “+++” (≥50 = +++) | 509 (FLFDTKPLIV; listed as Homo sapiens) [compound 509] |
| “++” (≥20% = ++) | 510 (KLYSVVSQL; listed as Homo sapiens) [compound 510] |
| “++” (≥20% = ++) | 511 (FLDPYCSASV; listed as Homo sapiens) [compound 511] |
| “+++” (≥50 = +++) | 512 (SLSEIVPCL; listed as Homo sapiens) [compound 512] |
| “++” (≥20% = ++) | 513 (SLWPSPEQL; listed as Homo sapiens) [compound 513] |
| “+++” (≥50 = +++) | 514 (ILVDWLVQV; listed as Homo sapiens) [compound 514] |
| “+++” (≥50 = +++) | 515 (LLQELVLFL; listed as Homo sapiens) [compound 515] |
| “++” (≥20% = ++) | 516 (AVGPASILKEV; listed as Homo sapiens) [compound 516] |
| “+++” (≥50 = +++) | 517 (LLMPIPEGLTL; listed as Homo sapiens) [compound 517] |
| “+++” (≥50 = +++) | 518 (KLNAEVACV; listed as Homo sapiens) [compound 518] |
| “+++” (≥50 = +++) | 519 (GLLHLTLLL; listed as Homo sapiens) [compound 519] |
| “+” (≥10% = +) | 520 (LAVHPSGVAL; listed as Homo sapiens) [compound 520] |
| “+++” (≥50 = +++) | 521 (MLLTKLPTI; listed as Homo sapiens) [compound 521] |
| “++” (≥20% = ++) | 522 (TLWYRSPEV; listed as Homo sapiens) [compound 522] |
| “++” (≥20% = ++) | 523 (YQIPRTFTL; listed as Homo sapiens) [compound 523] |
| “++” (≥20% = ++) | 524 (ALIENLTHQI; listed as Homo sapiens) [compound 524] |
| “+++” (≥50 = +++) | 525 (VLLEAGEGLVTI; listed as Homo sapiens) [compound 525] |
| “++” (≥20% = ++) | 526 (RLAEVGQYEQV; listed as Homo sapiens) [compound 526] |
| “++++” (≥75% = ++++) | 527 (FLLEPGNLEV; listed as Homo sapiens) [compound 527] |
